Values after ≈ are worked out from the molar mass of the structure shown.
B1: CF-301: Bacteriophage lysin polypeptide, SEQ ID NO: 1 (GenBank accession ZP 03625529), antimicrobial agent against Staphylococcus aureus (protein, listed as Streptococcus suis)
chain: MTTVNEALNNVRAQVGSGVSVGNGECYALASWYERMISPDATVGLGAGVGWVSGAIGDTISAKNIGSSYNWQANGWTVSTSGPFKAGQIVTLGATPGNPYGHVVIVEAVDGDRLTILEQNYGGKRYPVRNYYSAASYRQQVVHYITPPGTVAQSAPNLAGSRSYRETGTMTVTVDALNVRRAPNTSGEIVAVYKRGESFDYDTVIIDVNGYVWVSYIGGSGKRNYVATGATKDGKRFGNAWGTFK

Columns and labels:
[1] = test system: methicillin-susceptible (MSSA) strain ATCC 29213; test: MIC by broth microdilution, with and without bovine-derived surfactant
MRSA NRS-255 = test: Combination MIC assay in 7.5% surfactant; parameters: MIC alone / MIC combo: unit not given beside the values; settings: for MIC combo: CF-301 and daptomycin in combination; for MIC alone: single agent
MSSA ATCC 29213 = test: Combination MIC assay in 7.5% surfactant; parameters: MIC alone / MIC combo: unit not given beside the values; settings: for MIC combo: CF-301 and daptomycin in combination; for MIC alone: single agent
[2] = test system: methicillin resistant strain (MRSA) MW2; test: MIC by broth microdilution, with and without bovine-derived surfactant
MRSA NRS-265 = test: Combination MIC assay in 7.5% surfactant; parameters: MIC alone / MIC combo: unit not given beside the values; settings: for MIC combo: CF-301 and daptomycin in combination; for MIC alone: single agent
MSSA Newman = test: Combination MIC assay in 7.5% surfactant; parameters: MIC alone / MIC combo: unit not given beside the values; settings: for MIC combo: CF-301 and daptomycin in combination; for MIC alone: single agent
[3] = test system: S. aureus (MRSA strain ATCC BAA-42); test: Murine model of S. aureus pneumonia; settings: 14 days; CF-301 i.v., DAP s.c.; once daily
MRSA MW2 [4] = test: Combination MIC assay in 7.5% surfactant; parameters: MIC alone / MIC combo: unit not given beside the values; settings: for MIC combo: CF-301 and daptomycin in combination; for MIC alone: single agent
MSSA NRS-131 = test: Combination MIC assay in 7.5% surfactant; parameters: MIC alone / MIC combo: unit not given beside the values; settings: for MIC combo: CF-301 and daptomycin in combination; for MIC alone: single agent
[5] = test system: MRSA, MSSA, and VISA strains of S. aureus; test: MIC by broth microdilution in increasing surfactant, strains pooled; settings: for Antimicrobial activity in the presence of pulmonary (bovine-derived) surfactant: MRSA, MSSA and VISA strains
MSSA ATCC 49521 = test: Combination MIC assay in 7.5% surfactant; parameters: MIC alone / MIC combo: unit not given beside the values; settings: for MIC combo: CF-301 and daptomycin in combination; for MIC alone: single agent
MSSA ATCC 25923 = test: Combination MIC assay in 7.5% surfactant; parameters: MIC alone / MIC combo: unit not given beside the values; settings: for MIC combo: CF-301 and daptomycin in combination; for MIC alone: single agent
MRSA NRS-192 = test: Combination MIC assay in 7.5% surfactant; parameters: MIC alone / MIC combo: unit not given beside the values; settings: for MIC combo: CF-301 and daptomycin in combination; for MIC alone: single agent
MRSA BAA-1720 = test: Combination MIC assay in 7.5% surfactant; parameters: MIC alone / MIC combo: unit not given beside the values; settings: for MIC combo: CF-301 and daptomycin in combination; for MIC alone: single agent
VISA ATCC 700699 = test: BODIPY-labeled daptomycin binding assay, fluorescence microscopy; settings: CF-301 4 μg/ml; DAP^BD 4 μg/ml; 30 min; 7.5% surfactant
MRSA MW2 [6] = test: as above; settings: CF-301 8 μg/ml; BODIPY-DAP 4 μg/ml; 7.5% surfactant
[7] = test system: 5 strains of MRSA and 5 strains of MSSA; test: Combination MIC assay in 7.5% surfactant, strains pooled; settings: CF-301 and DAP combined, across strains

Molecule	Fold reduction (MIC alone vs combo) (MRSA NRS-255)	MIC combo (MRSA NRS-255)	MIC alone (MRSA NRS-255)	Fold reduction (MIC alone vs combo) (MSSA ATCC 29213)	MIC combo (MSSA ATCC 29213)	MIC alone (MSSA ATCC 29213)	Fold reduction (MIC alone vs combo) (MRSA NRS-265)	MIC combo (MRSA NRS-265)	MIC alone (MRSA NRS-265)	Fold reduction (MIC alone vs combo) (MSSA Newman)	MIC combo (MSSA Newman)	MIC alone (MSSA Newman)	Fold reduction (MIC alone vs combo) (MRSA MW2 [4])	MIC combo (MRSA MW2 [4])	MIC alone (MRSA MW2 [4])	Fold reduction (MIC alone vs combo) (MSSA NRS-131)	MIC combo (MSSA NRS-131)	MIC alone (MSSA NRS-131)	Antimicrobial activity in the presence of pulmonary (bovine-derived) surfactant [5]	Fold reduction (MIC alone vs combo) (MSSA ATCC 49521)	further results
CCCCCCCCCC(=O)N[C@@H](Cc1c[nH]c2ccccc12)C(=O)N[C@H](CC(N)=O)C(=O)N[C@@H](CC(=O)O)C(=O)N[C@@H]1C(=O)NCC(=O)N[C@@H](CCCN)C(=O)N[C@@H](CC(=O)O)C(=O)N[C@H](C)C(=O)N[C@@H](CC(=O)O)C(=O)NCC(=O)N[C@H](CO)C(=O)N[C@@H]([C@H](C)CC(=O)O)C(=O)N[C@@H](CC(=O)c2ccccc2N)C(=O)O[C@@H]1C [DAP, daptomycin, reference compound]	1024 fold	0.5	512	512 fold	0.5	256	1024 fold	0.25	256	512 fold	0.5	256	1024 fold	0.25	256	1024 fold	0.5	512	not active	512 fold	MIC ([1]; Staphylococcus aureus, ATCC29213|MSSA, 24 h, read-out: Starting MIC (without surfactant)): 1 µg/mL (≈ 0.617 µM); MIC ([2]; Staphylococcus aureus, MRSA, 24 h, read-out: Starting MIC (without surfactant)): 1 µg/mL (≈ 0.617 µM); Survival pattern, comparison between treatment groups [3]: same survival pattern as those treated with saline; MIC increase ([5]; strain not specified, surfactant concentrations 1.25-15%): 256 fold; MIC combo (MSSA ATCC 49521): 0.5; MIC alone (MSSA ATCC 49521): 256; Fold reduction (MIC alone vs combo) (MSSA ATCC 25923): 512 fold; MIC combo (MSSA ATCC 25923): 0.5; MIC alone (MSSA ATCC 25923): 256; Fold reduction (MIC alone vs combo) (MRSA NRS-192): 512 fold; MIC combo (MRSA NRS-192): 0.5; MIC alone (MRSA NRS-192): 256; Fold reduction (MIC alone vs combo) (MRSA BAA-1720): 1024 fold; MIC combo (MRSA BAA-1720): 0.25; MIC alone (MRSA BAA-1720): 256
B1	16 fold	2	64	32 fold	4	128	16 fold	4	64	32 fold	4	128	32 fold	2	64	16 fold	4	64	active	32 fold	Starting MIC (without surfactant) ([1]; ATCC 29213, no surfactant, 24 hours at 35° C.): 16 µg/mL; MIC increase ([1]; MSSA strain, surfactant concentrations 1.25-15%): up to 2 fold; DAP^BD binding to VISA (VISA ATCC 700699): promotes; MIC increase ([2]; MRSA strain, surfactant concentrations 1.25-15%): up to 2 fold; Starting MIC (without surfactant) ([2]; MW2, no surfactant, 24 hours at 35° C.): 32 µg/mL; BODIPY-DAP (DAP^BD) binding to MRSA (MRSA MW2 [6]): promotes; MIC combo (MSSA ATCC 49521): 2; MIC alone (MSSA ATCC 49521): 64; Fold reduction (MIC alone vs combo) (MSSA ATCC 25923): 32 fold; MIC combo (MSSA ATCC 25923): 4; MIC alone (MSSA ATCC 25923): 128; Growth inhibitory concentration lower in combination than as single agent (MIC reduction) [7]: 16-32 fold; Fold reduction (MIC alone vs combo) (MRSA NRS-192): 16 fold; MIC combo (MRSA NRS-192): 4; MIC alone (MRSA NRS-192): 64; Fold reduction (MIC alone vs combo) (MRSA BAA-1720): 32 fold; MIC combo (MRSA BAA-1720): 2; MIC alone (MRSA BAA-1720): 64

From patent US11357833B2, “Use of lysin to restore/augment antibacterial activity in the presence of pulmonary surfactant of antibiotics inhibited thereby” (priority 2015, dated 2022)
